# Target: human p33 CDK2 (human) (UniProt P24941)
# Sequence of human cyclin E (P24864 16-410 limits assumed): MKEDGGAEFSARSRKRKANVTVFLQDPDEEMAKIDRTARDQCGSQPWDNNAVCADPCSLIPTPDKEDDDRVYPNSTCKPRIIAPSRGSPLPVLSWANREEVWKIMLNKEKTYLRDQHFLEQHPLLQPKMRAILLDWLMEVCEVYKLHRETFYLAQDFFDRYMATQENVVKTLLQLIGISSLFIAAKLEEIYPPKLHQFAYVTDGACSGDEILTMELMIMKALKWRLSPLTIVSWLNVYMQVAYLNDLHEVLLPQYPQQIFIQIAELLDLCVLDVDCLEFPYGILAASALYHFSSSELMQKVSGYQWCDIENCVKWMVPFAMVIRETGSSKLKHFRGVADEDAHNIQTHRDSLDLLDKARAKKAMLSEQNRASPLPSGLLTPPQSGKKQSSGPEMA
substance,measurement,value
human cyclin E,CDK2 histone H1 kinase activity in G1 cell extract,22 fold

# Source: US5807698
